The Kd is the equilibrium constant for the complex coming apart.

The results in this text go back to patent US20160367664A1 (AGENCY FOR SCIENCE TECHNOLOGY AND RESEARCH, published 2016).

Experiment [1] concerns the target T1, recombinant human interleukin 2 receptor β (IL-2Rβ; CD122) (human, UniProt P14784 27-240).
T1 construct: Recombinant chain immobilised on the SPR chip and used as antigen in the ELISAs; also called human IL-2Rβ
T1 sequence (looked up): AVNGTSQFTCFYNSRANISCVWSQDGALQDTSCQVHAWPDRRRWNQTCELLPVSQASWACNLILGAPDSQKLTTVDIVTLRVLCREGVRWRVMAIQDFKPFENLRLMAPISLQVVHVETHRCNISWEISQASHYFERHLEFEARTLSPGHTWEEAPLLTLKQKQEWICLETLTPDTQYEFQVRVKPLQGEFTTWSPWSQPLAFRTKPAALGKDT
As to the kind of experiment: SPR, recombinant receptor chain immobilised on the chip, antibody flowed over. (In general: In SPR one partner is held on a chip, and binding of the other changes the refractive index at the surface.)

Experiment [2] deals with T2, recombinant human common γ chain (γc; CD132) (human, UniProt P31785 23-262).
T2 construct: Recombinant chain immobilised on the SPR chip and used as antigen in the ELISAs; also called IL-2Rγc; IL-2Rγ
T2 sequence (looked up): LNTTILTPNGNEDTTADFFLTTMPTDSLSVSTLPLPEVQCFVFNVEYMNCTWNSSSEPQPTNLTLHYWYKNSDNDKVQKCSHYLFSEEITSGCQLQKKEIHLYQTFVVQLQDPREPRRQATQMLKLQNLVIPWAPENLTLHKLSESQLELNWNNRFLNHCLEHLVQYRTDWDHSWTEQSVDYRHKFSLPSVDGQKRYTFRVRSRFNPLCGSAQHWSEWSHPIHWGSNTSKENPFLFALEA
The description is as above.

B1: bispecific anti-IL-2Rβ/γc antibody P2D12/P1A3 (bispecific antibody)
chain 1: HVQLVETGGGLVQPGGSLRLSCAASGFTFSSYAMSWVRQAPGKGLEWVSAISGSGGSTYYADSVKGRFTISRDNSKNTLYLQMNSLRAEDTAVYYCARDLGDYWGQGTLVTVSSGGGGSGGGGSGGGGSDIQLTQSPSSLSASVGDRVTITCQASQDIGNYLNWYQLKPGKAPKLLIYDASNLETGVPSRFSGSGSGTDFTFTISSLQPEDIATYYCLQLYDYPLTFGGGTKVEIK
chain 2: not shown
As for B1, the Kd in experiment [1] worked out at 181 nM; in experiment [2] it was 78.7 nM.
